Laboratory results as given in patent US20150307546A1.
Where “and” joins values, the source holds several entries; their conditions need not be identical. Equal values may be shown once.

Molecular target: horseradish peroxidase (HRP) (horseradish) (UniProt P00433)
Experiment: affinity precipitation at varied ligand to HRP ratio; peroxidase activity assay

Sequence of UniProt P00433 (P00433 31-338): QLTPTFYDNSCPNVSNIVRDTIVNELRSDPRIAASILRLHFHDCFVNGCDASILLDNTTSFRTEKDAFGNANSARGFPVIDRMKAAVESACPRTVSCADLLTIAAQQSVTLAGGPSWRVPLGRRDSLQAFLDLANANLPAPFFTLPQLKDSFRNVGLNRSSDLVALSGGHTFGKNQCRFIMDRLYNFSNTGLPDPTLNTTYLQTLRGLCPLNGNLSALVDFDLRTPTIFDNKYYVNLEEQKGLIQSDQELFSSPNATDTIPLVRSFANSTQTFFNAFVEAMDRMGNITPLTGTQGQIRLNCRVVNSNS

With “RSL-ELP40 (fucose lectin from Ralstonia solanacearum fused by a 10 amino acid glycine rich linker to (designed binder)” the molar excess of ligand at which full recovery was approached (mol ligand per mol HRP) was 15 and 20.
